According to patent publication US20250333531A1 (NORDIC NANOVECTOR ASA, published 2025):
Changes are numbered by the printed parent chain.

B1: AH02895 (antibody, human IgG1, kappa, V domains shown)
VH: QIQLVQSGAEVVKPGASVKVSCKASGYSFTDYNMYWVKQAPGQRLEWMGYIDPYNGDTTYNQKFKGRATITRDTSASTAYIELSSLRSEDTAVYYCARSPYGHYAMDYWGQGTLVTVSS
VL: DIQMTQSPSSLSASVGDRVTITCKASQDVSTAVDWYQQKPGKAPKLLINWASTRHTGVPSRFSGSGSGTDYTLTISSMQPEDFATYYCRQHYSTPFTFGQGTKLEIKR
notes: Humanized IgG1 kappa; also called NNV020 #6
B2: NNV024 (antibody, human IgG1)
heavy: not shown
light: DIQMTQSPSSLSASVGDRVTITCKASQDVSTAVDWYQQKPGKSPKLLINWASTRHTGVPSRFSGSGSGTDYTLTISSLQPEDFATYYCRQHYSTPFTFGQGTKLEIKRTDAAPSVFIFPPSDEQLKSGTASVVCLLNNFYPREAKVQWKVDNALQSGNSQESVTEQDSKDSTYSLSSTLTLSKADYEKHKVYACEVTHQGLSSPVTKSFNRGEC
modifications: afucosylated N-glycan (GlymaxX technology)
notes: Humanized IgG1 kappa, same chains as NNV023, afucosylated; also called afucosylated NNV023; AH02871HC_2877LC-110D GlymaxX

Legend:
[1] = target: T1, human CD37 (human, UniProt P11049 1-281); experiment: competitive radioligand binding on Ramos cells; upper end tied by Table 18 to AH02895
T1 construct: whole, on cells; also called CD37 antigen
T1 sequence (looked up): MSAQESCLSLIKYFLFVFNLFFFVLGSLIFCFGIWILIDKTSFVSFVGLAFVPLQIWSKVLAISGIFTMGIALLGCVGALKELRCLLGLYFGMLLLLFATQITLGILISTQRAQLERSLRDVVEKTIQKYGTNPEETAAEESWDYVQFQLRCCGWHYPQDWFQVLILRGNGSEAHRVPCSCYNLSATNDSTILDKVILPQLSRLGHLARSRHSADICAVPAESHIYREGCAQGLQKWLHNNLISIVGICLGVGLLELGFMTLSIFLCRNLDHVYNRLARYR

[2] = target: T1, human CD37; experiment: competitive radioligand binding on Ramos cells; ratio to Ki of NNV009 (assumed 2.3)
Method: (§1) The Eppendorf LoBind tubes 1.5 mL were used to prepare dilutions (working concentrations) of Abs. As much as 0.2 mL of the cell suspension (800 000 cells/tube), after it has been cooled down for 30 min on ice, was aliquoted to glass 12×75 mm counting tubes. Each tube was pre-labeled with a code specifically determining each sample. The tubes with cells were maintained on ice for whole time course of the experiment except for the time when counted on the gamma counter. The tubes were agitated on a planetary shaker at 350 RPM, 4° C. (on ice) for 15 min. […] The tubes were placed on the planetary shaker (GL 064), on ice, and shaken for 4 hours at 350 RPM. After 3.5 hours past from the beginning of incubation, the samples were assayed on Wizard2 gamma counter using protocol “Lu-177 General” (all detectors except for the detector #3 were used). Upon completion the counting, the cells were washed with ice-cold 0.5 mL 0.5% BSAPBS three times. All the tubes were assayed on the Wizard2 gamma counter again using the same sequence and parameters as before the washing.

[3] = target: T1, human CD37; experiment: competitive radioligand binding on Ramos cells against 177Lu-NNV009 (2.7 nM), gamma counting
Method: as §1

[4] = target: T2, biotinylated soluble human FcRn (human, UniProt P55899 24-297; P61769 21-119, biotinylated); experiment: ELISA: IgG coated at 1000-0.45 ng/ml, biotinylated soluble human FcRn 250 ng/ml pre-complexed with AP-streptavidin, pH 6.0, absorbance 405 nm
T2 construct: extracellular domain; Bought; Beta-2-microglobulin is not mentioned; Used as preformed complex with AP-streptavidin
Method: (§2) Remaining surface area were blocked with PBS containing 0.05% T and 4% S for 1 h at RT. The plates were washed four times with PBS/T using a Hydrospeed™ plate washer (Tecan). […] Following washing as above with PBS/T or FcRn binding buffer (67 nM phosphate, 0.1 M NaCl, 0.05% T, pH 6.0), bound receptor was visualized by addition of phosphatase substrate (1 mg/ml in diethanolamine buffer) (Sigma Aldrich). The plates were developed for 20-30 min before the 405 nm absorption values were recorded using a TECAN Sunrise spectrophotometer (Tecan).

[5] = target: T1, human CD37; experiment: reference to the competitive binding of Example 6
[6] = target: T3, human complement factor C1q (human, UniProt P02745 23-245; P02746 28-253; P02747 29-245); experiment: repeat ELISA: IgG coated at 20000-156.25 ng/ml, human C1q 360 ng/ml, detected with rabbit anti-human C1q and HRP anti-rabbit IgG (y axis printed as Absorbance 405 nm)
T3 construct: Bought
Method: (§3) Remaining surface area were blocked with PBS containing 0.05% T and 4% S for 1 h at RT. The plates were then washed four times with PBS/T using a Hydrospeed™ plate washer (Tecan). Human C1q (Complement Technologies) diluted to 360 ng/ml in veronal buffer (Complement Technologies) were added and incubated for 30 min at 37° C. Detection of bound C1q was performed using a primary anti-human C1q antibody from rabbit (DAKO) diluted 1:10.000 in PBS/T/S and a secondary horseradish peroxidase (HRP) conjugated anti-rabbit IgG antibody diluted 1:5000 in PBS/T/S (GE Healthcare). Binding was visualized by addition of 100 μl TMB substrate (Calbiochem) for 15-20 min before the enzymatic reaction was stopped by addition of 50 μl 1 M HC1. The 450 nm absorption values were recorded using a Sunrise TECAN spectrophotometer (Tecan).

[7] = target: T3, human complement factor C1q; experiment: ELISA: IgG coated at 20000-156.25 ng/ml, human C1q 360 ng/ml, detected with rabbit anti-human C1q and HRP anti-rabbit IgG (y axis printed as Absorbance 405 nm)
Method: as §3

[8] = target: T4, biotinylated truncated soluble human FcγRIIb (human, UniProt P31994 43-217, biotinylated); experiment: ELISA: IgG coated at 10000-4.5 ng/ml, biotinylated truncated soluble human FcγRIIb 250 ng/ml pre-complexed with AP-streptavidin, absorbance 405 nm
T4 construct: extracellular domain; Bought
T4 sequence (looked up): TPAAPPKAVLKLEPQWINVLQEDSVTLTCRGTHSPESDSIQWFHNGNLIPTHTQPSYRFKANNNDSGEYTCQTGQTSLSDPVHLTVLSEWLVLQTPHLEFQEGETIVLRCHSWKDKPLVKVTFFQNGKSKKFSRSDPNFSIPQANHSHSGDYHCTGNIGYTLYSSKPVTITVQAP
Method: as §2, with “96 well EIA/RIA plates (CorningCostar) were coated with 100 μl titrated amounts of IgG variants (10.000-4.5 ng/ml) diluted in PBS and incubated O/N at 4° C. Remaining” for “Remaining”, “above,” for “above with PBS/T or FcRn binding buffer (67 nM phosphate, 0.1 M NaCl, 0.05% T, pH 6.0),”, “15-20” for “20-30”

[9] = target: FcγRIIIa-V158 on Promega Jurkat effector cells (UniProt P08637 17-254, limits assumed); experiment: cell-based or functional assay
[10] = target: T5, biotinylated truncated soluble human FcγRIIIb (human, UniProt O75015 17-200, limits assumed, biotinylated); experiment: ELISA: IgG coated at 10000-4.5 ng/ml, biotinylated truncated soluble human FcγRIIIb 250 ng/ml pre-complexed with AP-streptavidin, absorbance 405 nm
T5 construct: extracellular domain; Bought
Method: as §2, with “96 well EIA/RIA plates (CorningCostar) were coated with 100 μl titrated amounts of IgG variants (10.000-4.5 ng/ml) diluted in PBS and incubated O/N at 4° C. Remaining” for “Remaining”, “above,” for “above with PBS/T or FcRn binding buffer (67 nM phosphate, 0.1 M NaCl, 0.05% T, pH 6.0),”, “15-20” for “20-30”

[11] = target: T6, biotinylated truncated soluble human FcγRI (human, UniProt P12314 16-292, biotinylated); experiment: ELISA: IgG coated at 10000-4.5 ng/ml, biotinylated truncated soluble human FcγRI 250 ng/ml pre-complexed with AP-streptavidin, absorbance 405 nm
T6 construct: extracellular domain; Bought; preformed complex with AP-streptavidin
Method: as §2, with “96 well EIA/RIA plates (CorningCostar) were coated with 100 μl titrated amounts of IgG variants (10.000-4.5 ng/ml) diluted in PBS and incubated O/N at 4° C. Remaining” for “Remaining”, “above,” for “above with PBS/T or FcRn binding buffer (67 nM phosphate, 0.1 M NaCl, 0.05% T, pH 6.0),”, “15-20” for “20-30”

[12] = target: T7, biotinylated truncated soluble human FcγRIIIa-F158 (human, UniProt P08637 17-208, biotinylated); experiment: ELISA: IgG coated at 10000-4.5 ng/ml, biotinylated truncated soluble human FcγRIIIa-F158 250 ng/ml pre-complexed with AP-streptavidin, absorbance 405 nm
T7 construct: extracellular domain; Bought
Method: as §2, with “96 well EIA/RIA plates (CorningCostar) were coated with 100 μl titrated amounts of IgG variants (10.000-4.5 ng/ml) diluted in PBS and incubated O/N at 4° C. Remaining” for “Remaining”, “above,” for “above with PBS/T or FcRn binding buffer (67 nM phosphate, 0.1 M NaCl, 0.05% T, pH 6.0),”, “15-20” for “20-30”

[13] = target: T8, biotinylated truncated soluble human FcγRIIIa-V158 (human, UniProt P08637 17-208, biotinylated); experiment: ELISA: IgG coated at 10000-4.5 ng/ml, biotinylated truncated soluble human FcγRIIIa-V158 250 ng/ml pre-complexed with AP-streptavidin, absorbance 405 nm
T8 construct: extracellular domain; Bought
Method: as §2, with “96 well EIA/RIA plates (CorningCostar) were coated with 100 μl titrated amounts of IgG variants (10.000-4.5 ng/ml) diluted in PBS and incubated O/N at 4° C. Remaining” for “Remaining”, “above,” for “above with PBS/T or FcRn binding buffer (67 nM phosphate, 0.1 M NaCl, 0.05% T, pH 6.0),”, “15-20” for “20-30”

[14] = target: T9, biotinylated truncated soluble human FcγRIIa-R131 (human, UniProt P12318 34-217, biotinylated); experiment: ELISA: IgG coated at 10000-4.5 ng/ml, biotinylated truncated soluble human FcγRIIa-R131 250 ng/ml pre-complexed with AP-streptavidin, absorbance 405 nm
T9 construct: extracellular domain; Bought
T9 sequence (looked up): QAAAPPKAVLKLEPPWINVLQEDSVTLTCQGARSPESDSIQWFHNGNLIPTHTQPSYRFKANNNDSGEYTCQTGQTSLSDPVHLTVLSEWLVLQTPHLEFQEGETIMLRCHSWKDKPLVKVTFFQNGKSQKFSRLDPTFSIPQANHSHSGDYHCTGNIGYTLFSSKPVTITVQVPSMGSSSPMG
Method: as §2, with “96 well EIA/RIA plates (CorningCostar) were coated with 100 μl titrated amounts of IgG variants (10.000-4.5 ng/ml) diluted in PBS and incubated O/N at 4° C. Remaining” for “Remaining”, “above,” for “above with PBS/T or FcRn binding buffer (67 nM phosphate, 0.1 M NaCl, 0.05% T, pH 6.0),”, “15-20” for “20-30”

[15] = target: T10, biotinylated truncated soluble human FcγRIIa-H131 (human, UniProt P12318 34-217, biotinylated); experiment: ELISA: IgG coated at 10000-4.5 ng/ml, biotinylated truncated soluble human FcγRIIa-H131 250 ng/ml pre-complexed with AP-streptavidin, absorbance 405 nm
T10 construct: extracellular domain; Bought
T10 sequence (looked up): T9 sequence (looked up) with R134H
Method: as §2, with “96 well EIA/RIA plates (CorningCostar) were coated with 100 μl titrated amounts of IgG variants (10.000-4.5 ng/ml) diluted in PBS and incubated O/N at 4° C. Remaining” for “Remaining”, “above,” for “above with PBS/T or FcRn binding buffer (67 nM phosphate, 0.1 M NaCl, 0.05% T, pH 6.0),”, “15-20” for “20-30”

T3 sequence (P02745 23-245 limits assumed, chain 1 of 3): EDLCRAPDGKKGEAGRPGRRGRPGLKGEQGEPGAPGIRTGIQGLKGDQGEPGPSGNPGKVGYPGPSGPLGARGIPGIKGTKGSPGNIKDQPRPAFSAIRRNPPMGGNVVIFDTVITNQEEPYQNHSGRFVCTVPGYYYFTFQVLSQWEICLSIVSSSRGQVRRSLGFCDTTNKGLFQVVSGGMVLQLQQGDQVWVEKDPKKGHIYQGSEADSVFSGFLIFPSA
T3 sequence (P02746 28-253 limits assumed, chain 2 of 3): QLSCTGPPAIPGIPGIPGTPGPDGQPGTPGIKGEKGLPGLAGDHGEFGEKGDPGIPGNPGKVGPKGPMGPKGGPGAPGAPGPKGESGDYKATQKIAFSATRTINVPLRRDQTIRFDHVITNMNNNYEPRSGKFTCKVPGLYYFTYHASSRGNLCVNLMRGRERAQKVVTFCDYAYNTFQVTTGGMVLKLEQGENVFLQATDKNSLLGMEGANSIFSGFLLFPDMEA
T3 sequence (P02747 29-245 limits assumed, chain 3 of 3): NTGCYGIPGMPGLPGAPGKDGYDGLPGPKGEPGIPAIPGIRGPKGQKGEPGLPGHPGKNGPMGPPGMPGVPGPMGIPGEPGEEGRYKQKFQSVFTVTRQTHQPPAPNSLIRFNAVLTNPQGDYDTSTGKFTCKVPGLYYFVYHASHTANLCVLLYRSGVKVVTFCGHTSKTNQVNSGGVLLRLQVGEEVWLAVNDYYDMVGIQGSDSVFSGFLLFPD
T6 sequence (P12314 16-292): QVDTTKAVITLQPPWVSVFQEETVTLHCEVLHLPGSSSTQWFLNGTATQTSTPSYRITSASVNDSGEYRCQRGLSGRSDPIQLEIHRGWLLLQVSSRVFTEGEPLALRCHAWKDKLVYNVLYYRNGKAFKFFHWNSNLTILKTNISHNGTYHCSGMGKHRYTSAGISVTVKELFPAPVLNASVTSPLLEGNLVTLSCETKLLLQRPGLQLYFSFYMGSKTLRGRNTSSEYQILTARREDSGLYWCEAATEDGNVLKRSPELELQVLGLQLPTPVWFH
T5 sequence (O75015 17-200 limits assumed): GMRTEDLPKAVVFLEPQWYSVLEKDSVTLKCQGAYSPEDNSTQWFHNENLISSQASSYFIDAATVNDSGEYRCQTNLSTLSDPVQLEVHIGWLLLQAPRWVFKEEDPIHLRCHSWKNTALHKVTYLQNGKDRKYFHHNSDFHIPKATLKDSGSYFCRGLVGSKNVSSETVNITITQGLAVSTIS
T2 sequence (P55899 24-297 limits assumed, chain 1 of 2): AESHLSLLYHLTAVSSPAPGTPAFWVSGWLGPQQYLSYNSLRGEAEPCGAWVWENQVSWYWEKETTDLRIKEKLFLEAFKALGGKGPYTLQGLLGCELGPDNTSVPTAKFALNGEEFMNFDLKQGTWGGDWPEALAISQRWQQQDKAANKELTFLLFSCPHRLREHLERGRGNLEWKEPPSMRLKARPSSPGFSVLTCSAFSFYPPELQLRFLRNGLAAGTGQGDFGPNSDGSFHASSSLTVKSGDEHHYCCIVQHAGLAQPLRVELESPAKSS
T2 sequence (P61769 21-119 limits assumed, chain 2 of 2): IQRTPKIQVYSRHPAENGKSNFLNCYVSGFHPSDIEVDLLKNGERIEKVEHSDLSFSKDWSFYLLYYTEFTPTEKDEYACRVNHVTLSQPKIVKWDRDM

| Binder | fold affinity relative to NNV009 [1] [fold] | Ki(NNV009)/Ki(NNV020 var.) [2] [fold] | EC50 [3] [nM] | Ki [3] [nM] | EC50 (read off the curve) [4] [µg/mL] | binding result [5] | EC50 (read off the curve) [6] [µg/mL] | EC50 (read off the curve) [7] [µg/mL] | EC50 (read off the curve) [8] [µg/mL] | ADCC signaling at 1 µg/mL relative to obinutuzumab, patient-derived CLL cells [9] [fold] | average Emax relative to rituximab, ADCC FcγRIIIa-158V reporter assay, ten B-NHL cell lines [9] [fold] | average potency (EC50) relative to rituximab, ADCC FcγRIIIa-158V reporter assay [9] [fold] | average potency of the ADCC response (Example 13) [9] [nM] | EC50 (read off the curve) [10] [µg/mL] | EC50 (read off the curve) [11] [µg/mL] | EC50 (read off the curve) [12] [µg/mL] | EC50 (read off the curve) [13] [µg/mL] | EC50 (read off the curve) [14] [µg/mL] | EC50 (read off the curve) [15] [µg/mL] |
| --- | --- | --- | --- | --- | --- | --- | --- | --- | --- | --- | --- | --- | --- | --- | --- | --- | --- | --- | --- |
| B1 | 4 to 7 | 6.97 | 0.718 | 0.33 |  |  |  |  |  |  |  |  |  |  |  |  |  |  |  |
| B2 |  |  |  |  | ~0.04 | binds | ~2 | ~3 | ~0.7 | ~3 | 1.36 | 35.5 | 0.6 | ~0.4 | ~0.4 | ~0.2 | ~0.6 | ~0.8 | ~0.3 |
